Data published in patent EP4806922A2 (Lyvgen Biopharma Holdings Limited, dated 2026).
Where two headings read alike, the source gives them in different places.

What was measured:
human PD-L1 protein [1] = biological target: T1, human PD-L1 protein (human, UniProt Q9NZQ7 19-238); experiment: FCM or ELISA, graded summary
human BCMA protein = biological target: T2, human BCMA protein (human, UniProt Q02223 1-54); experiment: FCM or ELISA, graded summary
T2 construct: also called human BCMA expressing NCI-H929 cells; human BCMA overexpressing HEK293 cells
T2 sequence (looked up): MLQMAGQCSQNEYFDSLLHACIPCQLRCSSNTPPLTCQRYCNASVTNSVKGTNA

human CD3D/E protein [2] = biological target: T3, human CD3D/E protein (human, UniProt P04234 22-105; P07766 23-126); experiment: FCM or ELISA, graded summary
T3 construct: also called human CD3 expressing Jurkat cells
T3 sequence (P04234 22-105, chain 1 of 2): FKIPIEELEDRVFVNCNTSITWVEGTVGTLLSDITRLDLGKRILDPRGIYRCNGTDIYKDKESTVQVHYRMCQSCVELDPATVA
T3 sequence (P07766 23-126, chain 2 of 2): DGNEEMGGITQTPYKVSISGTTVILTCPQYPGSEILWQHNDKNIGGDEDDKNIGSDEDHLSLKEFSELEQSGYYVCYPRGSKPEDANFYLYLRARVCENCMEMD

human CD3D/E protein [3] = biological target: T3, human CD3D/E protein; experiment: ELISA or FCM, graded summary
human PD-L1 protein [4] = biological target: T1, human PD-L1 protein; experiment: FCM or ELISA, graded summary; remark: listed apart in the source
human CD137 protein = biological target: T4, human CD137 protein (human, UniProt Q07011 24-186); experiment: ELISA or FCM, graded summary
T4 construct: also called human CD137 expressing CHO cells
T4 sequence (Q07011 24-186 limits assumed): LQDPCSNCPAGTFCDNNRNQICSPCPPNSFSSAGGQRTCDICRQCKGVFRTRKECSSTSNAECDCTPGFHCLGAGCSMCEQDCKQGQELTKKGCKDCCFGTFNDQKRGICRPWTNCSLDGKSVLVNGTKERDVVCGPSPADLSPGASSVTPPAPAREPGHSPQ

T1 sequence (Q9NZQ7 19-238 limits assumed): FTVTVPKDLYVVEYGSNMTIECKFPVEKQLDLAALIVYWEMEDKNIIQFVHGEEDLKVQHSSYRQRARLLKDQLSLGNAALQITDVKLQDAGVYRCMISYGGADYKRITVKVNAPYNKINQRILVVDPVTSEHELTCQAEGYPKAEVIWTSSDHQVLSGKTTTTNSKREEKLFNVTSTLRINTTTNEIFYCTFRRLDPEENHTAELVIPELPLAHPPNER

B1: Ly2959 (BCMA/CD3/PD-L1) (other)
heavy 1: QVQLVQSGAEVKKPGASVKVSCKASGYTFTNHIIHWVRQAPGQGLEWMGYINPYPGYHAYNEKFQGRATMTSDTSTSTVYMELSSLRSEDTAVYYCARDGYYRDTDVLDYWGQGTLVTVSSASTKGPSVFPLAPSSKSTSGGTAALGCLVKDYFPEPVTVSWNSGALTSGVHTFPAVLQSSGLYSLSSVVTVPSSSLGTQTYICNVNHKPSNTKVDKKVEPKSCGGGGSGGGGSGGGGSGGGGSEVQLVESGGGLVQPGGSLRLSCAASGFTFSTYAMNWVRQAPGKGLEWVGRIRSKYNNYATYYADSVKGRFTISRDDSKNSLYLQMNSLKTEDTAVYYCVRHGNFGNSYVSWFAYWGQGTLVTVSSGGGGSDKTHTCPPCPAPELLGPSVFLFPPKPKDTLMISRTPEVTCVVVDVSHEDPEVKFNWYVDGVEVHNAKTKPREEQYNSTYRVVSVLTVLHQDWLNGKEYKCKVSNKALGAPIEKTISKAKGQPREPQVYTLPPSREEMTKNQVSLWCLVKGFYPSDIAVEWESNGQPENNYKTTPPVLDSDGSFFLYSKLTVDKSRWQQGNVFSCSVMHEALHNHYTQKSLSLSPGKGGGGSGGGGSGGGGSGGGGSQVQLVQSGAEVKKPGASVKVSCKASGYTFTDFWMSWVRQAPGQGLEWMGQIYPNTGTTHSNEKFKGRVTMTRDTSTSTVYMELSSLRSEDTAVYYCARSYHISTTPNWFAYWGQGTLVTVSS
heavy 2: QVQLVQSGAEVKKPGASVKVSCKASGYTFTNHIIHWVRQAPGQGLEWMGYINPYPGYHAYNEKFQGRATMTSDTSTSTVYMELSSLRSEDTAVYYCARDGYYRDTDVLDYWGQGTLVTVSSASTKGPSVFPLAPSSKSTSGGTAALGCLVKDYFPEPVTVSWNSGALTSGVHTFPAVLQSSGLYSLSSVVTVPSSSLGTQTYICNVNHKPSNTKVDKKVEPKSCGGGGSGGGGSGGGGSGGGGSQAVVTQEPSLTVSPGGTVTLTCRSSTGAVTTSNYANWVQQKPGQAPRGLIGGTNKRAPWTPARFSGSLLGGKAALTITGAQAEDEADYYCALWYSNLWVFGGGTKLTVLGGGGSDKTHTCPPCPAPELLGPSVFLFPPKPKDTLMISRTPEVTCVVVDVSHEDPEVKFNWYVDGVEVHNAKTKPREEQYNSTYRVVSVLTVLHQDWLNGKEYKCKVSNKALGAPIEKTISKAKGQPREPQVYTLPPSREEMTKNQVSLSCAVKGFYPSDIAVEWESNGQPENNYKTTPPVLDSDGSFFLVSKLTVDKSRWQQGNVFSCSVMHEALHNRFTQKSLSLSPGKGGGGSGGGGSGGGGSGGGGSDIQMTQSPSSLSASVGDRVTITCKASQNVYKKLEWYQQKPGKVPKVLIYHTNILQTGVPSRFSGSGSGTDYTLTISSLQPEDVATYYCYQWNSGPTFGGGTKVEIK
light: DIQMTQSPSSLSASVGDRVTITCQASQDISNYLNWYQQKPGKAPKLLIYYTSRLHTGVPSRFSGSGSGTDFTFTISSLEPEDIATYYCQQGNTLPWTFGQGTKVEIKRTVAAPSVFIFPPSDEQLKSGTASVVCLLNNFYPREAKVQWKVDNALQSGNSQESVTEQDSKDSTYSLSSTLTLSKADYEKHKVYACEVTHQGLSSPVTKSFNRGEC
notes: Multi-specific (tri-specific) antibody with three different chains HC1, HC2, LC1; also called BCMA(a) /CD3 /PD-L1
- binding result (human PD-L1 protein [1]): binds
- binding result (human BCMA protein): binds
- binding result (human CD3D/E protein [2]): binds

B2: Ly305 (anti-CD3 parent) (antibody, V domains shown)
VH: EVQLVESGGGLVQPGGSLRLSCAASGFTFSTYAMNWVRQAPGKGLEWVGRIRSKYNNYATYYADSVKGRFTISRDDSKNSLYLQMNSLKTEDTAVYYCVRHGNFGNSYVSWFAYWGQGTLVTVSS
VL: QAVVTQEPSLTVSPGGTVTLTCRSSTGAVTTSNYANWVQQKPGQAPRGLIGGTNKRAPWTPARFSGSLLGGKAALTITGAQAEDEADYYCALWYSNLWVFGGGTKLTVL
notes: Parent monoclonal antibody used as control; also called anti-CD3 mAb Ly305; parental anti-CD3 mAb
- binding result (human CD3D/E protein [3]): binds

B3: Ly076 (anti-PD-L1 parent) (antibody, V domains shown)
VH: QVQLVQSGAEVKKPGASVKVSCKASGYTFTDFWMSWVRQAPGQGLEWMGQIYPNTGTTHSNEKFKGRVTMTRDTSTSTVYMELSSLRSEDTAVYYCARSYHISTTPNWFAYWGQGTLVTVSS
VL: DIQMTQSPSSLSASVGDRVTITCKASQNVYKKLEWYQQKPGKVPKVLIYHTNILQTGVPSRFSGSGSGTDYTLTISSLQPEDVATYYCYQWNSGPTFGGGTKVEIK
notes: Parent monoclonal antibody used as control; also called anti-PD-L1 mAb Ly076
- binding result (human PD-L1 protein [4]): binds

B4: Ly1630 (anti-CD137 parent) (antibody, V domains shown)
VH: QVQLVQSGAEVKKPGASVKVSCKASGYTFAGFEMHWVRQAPGQGLEWMGAIDPKTGGTDYNQKFKDRVTMTRDTSISTAYMELSRLRSDDTAVYYCARDLGYFDVWGQGTLVTVSS
VL: DIQMTQSPSSLSASVGDRVTITCRASQDIRSNLNWYQQKPGGAVKLLIYYTSRLHSGVPSRFSGSGSGTDYTLTISSLQPEDFATYFCQQSEKLPRTFGGGTKVEIR
notes: Parent monoclonal antibody used as control; also called anti-CD137 mAb Ly1630
- binding result (human CD137 protein): binds
